T1: Mad1-GFP (human, UniProt Q9Y6D9 1-718)
T1 construct: Mad1, human; cDNA amplified from a HeLa cell cDNA library; not shown: GFP, C-terminal, kept
T1 sequence (looked up): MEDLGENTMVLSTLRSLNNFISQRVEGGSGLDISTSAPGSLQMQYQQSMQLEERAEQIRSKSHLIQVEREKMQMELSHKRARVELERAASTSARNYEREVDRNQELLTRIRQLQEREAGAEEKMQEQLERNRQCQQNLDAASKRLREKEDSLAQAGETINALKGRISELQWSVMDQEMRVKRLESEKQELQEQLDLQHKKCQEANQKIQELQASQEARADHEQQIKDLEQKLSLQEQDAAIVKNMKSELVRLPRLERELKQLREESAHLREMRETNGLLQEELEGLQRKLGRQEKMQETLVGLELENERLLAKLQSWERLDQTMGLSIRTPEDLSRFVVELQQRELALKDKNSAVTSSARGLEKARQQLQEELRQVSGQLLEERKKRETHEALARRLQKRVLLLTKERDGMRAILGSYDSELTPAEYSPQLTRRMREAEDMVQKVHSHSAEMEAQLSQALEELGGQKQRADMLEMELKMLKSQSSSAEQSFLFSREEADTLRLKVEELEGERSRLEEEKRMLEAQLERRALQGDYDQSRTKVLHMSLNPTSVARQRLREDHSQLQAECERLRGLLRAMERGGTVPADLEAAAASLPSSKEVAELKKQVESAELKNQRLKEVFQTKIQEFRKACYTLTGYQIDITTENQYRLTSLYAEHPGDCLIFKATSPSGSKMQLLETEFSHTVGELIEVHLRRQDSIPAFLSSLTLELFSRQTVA

T2: GST-Mad1 (176–718 amino acids) (human, UniProt Q9Y6D9 176-718)
T2 construct: source: E. coli BL21, purified (Glutathione Sepharose 4B, eluted by glutathione); not shown: GST, N-terminal, kept
T2 sequence (looked up): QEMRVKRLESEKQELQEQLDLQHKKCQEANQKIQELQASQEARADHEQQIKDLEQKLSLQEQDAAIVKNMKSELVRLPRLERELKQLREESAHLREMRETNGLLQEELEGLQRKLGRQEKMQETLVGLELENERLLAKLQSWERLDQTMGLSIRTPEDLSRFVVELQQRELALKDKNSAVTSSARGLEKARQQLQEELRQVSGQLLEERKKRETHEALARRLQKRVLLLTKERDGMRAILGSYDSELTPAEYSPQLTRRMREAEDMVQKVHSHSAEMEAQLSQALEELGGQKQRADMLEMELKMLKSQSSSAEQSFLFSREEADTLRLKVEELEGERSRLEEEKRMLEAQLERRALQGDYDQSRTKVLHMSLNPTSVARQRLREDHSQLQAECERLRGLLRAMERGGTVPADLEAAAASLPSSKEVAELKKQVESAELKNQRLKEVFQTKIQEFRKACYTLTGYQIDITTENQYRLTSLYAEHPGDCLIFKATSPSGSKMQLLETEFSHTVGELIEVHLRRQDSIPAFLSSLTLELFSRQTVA

T3: Flag-Mad1 (human, UniProt Q9Y6D9 1-718)
T3 construct: Mad1, human; cDNA amplified from a HeLa cell cDNA library; also called Flag-Mad1 (FL); source: HEK293T, purified (anti-Flag beads, 600 mM NaCl wash, eluted by 3 x Flag peptides); not shown: Flag, N-terminal, kept
T3 sequence (looked up): T1 sequence (looked up)

T4: MBP-Cep57 (1–242 amino acids) (human, UniProt Q86XR8 1-242)
T4 construct: also called MBP-Cep57N; source: E. coli BL21, purified (Amylose Magnetic beads); not shown: MBP, N-terminal, kept
T4 sequence (looked up): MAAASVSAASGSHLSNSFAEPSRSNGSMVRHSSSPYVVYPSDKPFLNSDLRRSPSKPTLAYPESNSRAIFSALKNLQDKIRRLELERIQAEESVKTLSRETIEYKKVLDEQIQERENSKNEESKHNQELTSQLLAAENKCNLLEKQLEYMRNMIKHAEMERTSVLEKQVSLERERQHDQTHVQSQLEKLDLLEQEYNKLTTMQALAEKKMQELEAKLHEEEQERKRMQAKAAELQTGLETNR

B1: Flag-Cep57 (natural protein, human, UniProt Q86XR8 1-500, looked up)
chain: MAAASVSAASGSHLSNSFAEPSRSNGSMVRHSSSPYVVYPSDKPFLNSDLRRSPSKPTLAYPESNSRAIFSALKNLQDKIRRLELERIQAEESVKTLSRETIEYKKVLDEQIQERENSKNEESKHNQELTSQLLAAENKCNLLEKQLEYMRNMIKHAEMERTSVLEKQVSLERERQHDQTHVQSQLEKLDLLEQEYNKLTTMQALAEKKMQELEAKLHEEEQERKRMQAKAAELQTGLETNRLIFEDKATPCVPNARRIKKKKSKPPEKKSSRNYFGAQPHYRLCLGDMPFVAGKSTSPSHAVVANVQLVLHLMKQHSKALCNDRVINSIPLAKQVSSRGGKSKKLSVTPPSSNGINEELSEVLQTLQDEFGQMSFDHQQLAKLIQESPTVELKDKLECELEALVGRMEAKANQITKVRKYQAQLEKQKLEKQKKELKATKKTLDEERNSSSRSGITGTTNKKDFMKLRPGEKRRKNLQLLKDMQSIQNSLQSSSLCWDY
notes: Cep57 (translokin), human; cDNA amplified from a HeLa cell cDNA library; also called purified Cep57 from HEK293T cells; source: HEK293T, purified (anti-Flag beads, 600 mM NaCl wash, eluted by 3 x Flag peptides); not shown: Flag, N-terminal, kept
B2: MBP-Cep57 (151–500 amino acids) (domain or fragment, human, UniProt Q86XR8 151-500, looked up)
chain: RNMIKHAEMERTSVLEKQVSLERERQHDQTHVQSQLEKLDLLEQEYNKLTTMQALAEKKMQELEAKLHEEEQERKRMQAKAAELQTGLETNRLIFEDKATPCVPNARRIKKKKSKPPEKKSSRNYFGAQPHYRLCLGDMPFVAGKSTSPSHAVVANVQLVLHLMKQHSKALCNDRVINSIPLAKQVSSRGGKSKKLSVTPPSSNGINEELSEVLQTLQDEFGQMSFDHQQLAKLIQESPTVELKDKLECELEALVGRMEAKANQITKVRKYQAQLEKQKLEKQKKELKATKKTLDEERNSSSRSGITGTTNKKDFMKLRPGEKRRKNLQLLKDMQSIQNSLQSSSLCWDY
notes: Cep57, human, residues 151-500; source: E. coli BL21, purified (Amylose Magnetic beads); not shown: MBP, N-terminal, kept
B3: GST-Cep57 (195–500 amino acids) (domain or fragment, human, UniProt Q86XR8 195-500, looked up)
chain: EYNKLTTMQALAEKKMQELEAKLHEEEQERKRMQAKAAELQTGLETNRLIFEDKATPCVPNARRIKKKKSKPPEKKSSRNYFGAQPHYRLCLGDMPFVAGKSTSPSHAVVANVQLVLHLMKQHSKALCNDRVINSIPLAKQVSSRGGKSKKLSVTPPSSNGINEELSEVLQTLQDEFGQMSFDHQQLAKLIQESPTVELKDKLECELEALVGRMEAKANQITKVRKYQAQLEKQKLEKQKKELKATKKTLDEERNSSSRSGITGTTNKKDFMKLRPGEKRRKNLQLLKDMQSIQNSLQSSSLCWDY
notes: also called C terminus of Cep57; C-terminal Cep57; source: E. coli, purified (Glutathione Sepharose 4B); not shown: GST, N-terminal, kept
B4: GST-Mis12 (natural protein, human, UniProt Q9H081 1-205, looked up)
chain: MSVDPMTYEAQFFGFTPQTCMLRIYIAFQDYLFEVMQAVEQVILKKLDGIPDCDISPVQIRKCTEKFLCFMKGHFDNLFSKMEQLFLQLILRIPSNILLPEDKCKETPYSEEDFQHLQKEIEQLQEKYKTELCTKQALLAELEEQKIVQAKLKQTLTFFDELHNVGRDHGTSDFRESLVSLVQNSRKLQNIRDNVEKESKRLKIS
notes: Mis12, human; cDNA amplified from a HeLa cell cDNA library; also called Mis12 from bacteria; WT GST-Mis12; source: E. coli BL21, purified (Glutathione Sepharose 4B, eluted by glutathione); not shown: GST, N-terminal, kept

Legend:
Details in all cases: both partners purified
Mad1-GFP = target: T1, Mad1-GFP; assay: co-IP; purified proteins incubated together, immunoprecipitated with anti-Flag or anti-GFP antibody, western blotting
[1] = target: T2, GST-Mad1 (176–718 amino acids); assay: pull-down; about 0.2 μg MBP-Cep57 fragment coupled to Amylose Magnetic beads incubated with about 0.2 μg purified, eluted GST-tagged protein; washed five times with lysis buffer; western blotting with anti-GST
Flag-Mad1 = target: T3, Flag-Mad1; assay: co-IP; purified proteins incubated together, immunoprecipitated with anti-Flag or anti-GFP antibody, western blotting
[2] = target: T4, MBP-Cep57 (1–242 amino acids); assay: pull-down; about 0.2 μg MBP-Cep57 fragment coupled to Amylose Magnetic beads incubated with about 0.2 μg purified, eluted GST-tagged protein; washed five times with lysis buffer; western blotting with anti-GST
Flag-Cep57 = target: B1; assay: co-IP; purified proteins incubated together, immunoprecipitated with anti-Flag or anti-GFP antibody, western blotting

Q: Does B1 bind (Mad1-GFP)?
A: binds

Q: Does B2 bind [1]?
A: binds

Q: Does B3 bind (Flag-Mad1)?
A: binds

Q: Which results are given for B4?
A: binding result [2]: binds; binding result (Flag-Cep57): binds

From publication PMC4729865 (Nature Communications, 2016)
